Assay [1] has as its target Mas receptor, endogenous in mouse striatal cells (mouse (endogenous in primary striatal neurons and microglia)) (UniProt P30554). Kind of assay: proximity ligation.
The target in assay [2] is T1, Mas receptor fused to Rluc (MasR-Rluc) (human), P04201.
T1 chain: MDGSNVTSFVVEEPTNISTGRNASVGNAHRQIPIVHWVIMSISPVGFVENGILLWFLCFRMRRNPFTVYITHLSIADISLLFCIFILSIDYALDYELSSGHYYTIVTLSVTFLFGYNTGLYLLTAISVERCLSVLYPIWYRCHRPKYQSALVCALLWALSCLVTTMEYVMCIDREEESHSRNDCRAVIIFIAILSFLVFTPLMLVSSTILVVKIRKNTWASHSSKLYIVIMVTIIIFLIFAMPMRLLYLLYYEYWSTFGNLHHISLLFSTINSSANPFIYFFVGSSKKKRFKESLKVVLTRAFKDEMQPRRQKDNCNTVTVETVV
As to the kind of experiment: FRET or BRET. Particulars: remark: other sources report otherwise. Background: Bioluminescence resonance energy transfer reports proximity on the nanometre scale.

UniProt P30554, sequence (P30554 whole entry, the tested form may be a part): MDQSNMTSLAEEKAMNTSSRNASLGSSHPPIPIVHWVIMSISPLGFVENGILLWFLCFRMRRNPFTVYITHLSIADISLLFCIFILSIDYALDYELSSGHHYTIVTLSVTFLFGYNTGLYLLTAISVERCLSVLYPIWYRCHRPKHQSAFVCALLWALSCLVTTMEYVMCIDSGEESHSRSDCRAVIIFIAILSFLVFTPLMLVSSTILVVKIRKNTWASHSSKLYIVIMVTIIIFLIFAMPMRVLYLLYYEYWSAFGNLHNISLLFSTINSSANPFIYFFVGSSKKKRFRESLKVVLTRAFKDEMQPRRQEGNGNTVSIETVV

As for “Angiotensin AT1 receptor, endogenous in mouse striatal cells (from UniProt P29754 1-359)”, the PLA red dots/cell (striatal neurons) (red dots/cell) in assay [1] was determined as 1.44.

B1: Angiotensin AT1 receptor fused to YFP (AT1R-YFP), P30556 1-359 (receptor)
chain: MILNSSTEDGIKRIQDDCPKAGRHNYIFVMIPTLYSIIFVVGIFGNSLVVIVIYFYMKLKTVASVFLLNLALADLCFLLTLPLWAVYTAMEYRWPFGNYLCKIASASVSFNLYASVFLLTCLSIDRYLAIVHPMKSRLRRTMLVAKVTCIIIWLLAGLASLPAIIHRNVFFIENTNITVCAFHYESQNSTLPIGLGLTKNILGFLFPFLIILTSYTLIWKALKKAYEIQKNKPRNDDIFKIIMAIVLFFFFSWIPHQIFTFLDVLIQLGIIRDCRIADIVDTAMPITICIAYFNNCLNPLFYGFLGKKFKRYFLQLLKYIPPKAKSHSNLSTKMSTLSYRPSDNVSSSTKKPAPCFEVE
On to B1, for which the BRET50 in assay [2] came to 13 mBU.

Source of the values: article PMC7817140.
